In the nanobody polyreactivity screen of Harvey et al. (2022):

Assay: yeast display, Sf9 membrane polyspecificity reagent, FACS + sequencing; frameworks hold sequencing errors
Method in brief: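 Nanobodies from a synthetic yeast display library (Saccharomyces cerevisiae BJ5465), induced 36–48 hours with galactose, were stained 1 hour at 4 °C with 10% biotinylated, detergent-solubilized Sf9 membrane reagent, enriched on streptavidin microbeads, then FACS-sorted. Anti-HA (expression) and streptavidin (reagent binding) fluorescence set low and high (top ~1%) gates. Polyreactivity labels come from the gate of origin. Genes were colony-PCR amplified, MiSeq 2 × 250 sequenced and filtered by CDR length.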

Sequence	polyreactivity (PSR sort gate)
QVQLVESGGGLVQAGGSLRLSCAASGSIFRGYTMGWYRQATGKERELVATISWSGGSTYYADSVKGRFTISRDNAKNTVYLQMNCLKPEDTAVYYCAAVWYLGIPYDYWGQGTQVTVSS	high polyreactivity
QVQLVESGGGLVQAGGSLRLSCAASGSIFRGYVMGWYRQAPGKERELVAAIRWRGGDTRYADSVKGRFTISRDNAKNTVYLQMNSLKPEDTAVYYCAAQYRKTQYQKKYDYWGQGTQVTVSS	high polyreactivity
QVQLVESGGGLVQAGGSLRLSCAASGSIFRKNAMGWYRQAPGKERELVAAITCTGRTTYADSVKGRFTISRDNAKNTVYLQMNSLKPEDTAVYYCAADVNYYQHRLYYWGQGTQVTVSS	low polyreactivity
QVQLVESGGGLVQAGGSLRLSCAASGSIFRKNAMGWYRQAPGKERELVAAITYRTGSTYYADSVKGRFTISRDNAKNTVYLQMNSLKPEDTAVYYCAAQTWGSGYGHIGRRRHDYWGQGTQVTVSS	high polyreactivity
QVQLVESGGGLVQAGGSLRLSCAASGSIFRKYAMGWYRQAPGKEREFVAAISRSGGGTYYADSVKGRFTISRDNAKNTVYLQMNSLKPEDTAVYYCAAEFRTGLQGEHYYWGQGTQVTVSS	low polyreactivity
QVQLVESGGGLVQAGGSLRLSCAASGSIFRLNALGWYRQAPGKERELVAAITWSDSSTYYADSVKGRFTISRDNAKNTVYLQMNSLKQEDTAVYYCAADPQSYKYDYWGQGTQVTVSS	low polyreactivity
QVQLVESGGGLVQAGGSLRLSCAASGSIFRLNAMGWYRQAPGKERELVAAIDGSDGSTYYADSVKGRFTISRDNAKNTVYLQMNSLKPEDTAVYYCAAERGYPTDYYSGSDDYWGQGTQVTVSS	low polyreactivity
QVQLVESGGGLVQAGGSLRLSCAASGSIFRLNAMGWYRQAPGKERELVAAITSSGGNTYYADSVKGRFTISRDNAKNTVYLQMNSLKPEDTAVYYCATRAYARWYGYWGQGTQVTVSS	low polyreactivity
QVQLVESGGGLVQAGGSLRLSCAASGSIFRNNAMGWYIQAPGKERELVASITRRGGSTYYADSVKGRFTISRDNAKNTVYLQMNSLKPEYTAGSYCAATTQHRYTLNYWGQGTQVTVSS	high polyreactivity
QVQLVESGGGLVQAGGSLRLSCAASGSIFRNYAMGWYRQAPGKEREFVAAISGGGGSTYYADSVKGRFTISRDNAKNTVYLQMNSLKPEDTAVYYCARVRYYGALKLYAYDHWGQGTQVTVSS	high polyreactivity
QVQLVESGGGLVQAGGSLRLSCAASGSIFRPNDMGWYRQAPGKERELVAAISTGGSTSYADSVKGRFTISRDNAKNTVYLQMNSLKPEDTAVYYCAAVYYLTDWYGVWYSFDYWGQGTQVTVSS	low polyreactivity
QVQLVESGGGLVQAGGSLRLSCAASGSIFRPYAMGRYRQAPGKERELVAAISWRSGRTYYADSVKGRFTISRDNAKNTVYLQMNSLKPEDTAVYYCAADLASYAYRYDYWGQGTQVTVSS	high polyreactivity
QVQLVESGGGLVQAGGSLRLSCAASGSIFRPYAMGWYRQAPGKERELVAAITWSGGRTYYADSVKGRFTISRDNAKNTVYLQMNSLKPEDTAVYYCAADDSEGFDYWGQGTQVTVSS	high polyreactivity
QVQLVESGGGLVQAGGSLRLSCAASGSIFRQYAMGWYRQAPGKERELVAAITYSGGNTYYADSVKGRFTISRDNAKNTVYVQMNSLKPEDTAVYYCAADYGSRSWEYNYWGQGTQVTVSS	low polyreactivity
QVQLVESGGGLVQAGGSLRLSCAASGSIFRRNAMGWYRQAPGKERELVAAISSNGGSTYYADSVKGRFTISRDNAKNTVYLQMNSLKQEDTAVYYFNALGRVRYSPRYGYDYWGLGTQVTVSS	high polyreactivity
QVQLVESGGGLVQAGGSLRLSCAASGSIFRRNAMGWYRQAPGKERELVAAISSSGNTYYADSVKGRFTISRDNAKNTVYLQMNSLKPEDTAVYYCAADGRNYYGSYDYWGQGTQVTVSS	low polyreactivity

Sequence	polyreactivity (PSR sort gate)
QVQLVESGGGLVQAGGSLRLSCAASGSIFRRNAMGWYRQVPGKERELVAAITWRGDRTYYADSVKGRFTISRDNAKNTVYLQMNSLKPEDTAVYYCNKLGRIQYDYWGQGTQVTVSS	high polyreactivity
QVQLVESGGGLVQAGGSLRLSCAASGSIFRRNTMGWYRQAPGKERELVAAITFTGGRTYYADSVKGRFTISRDNAKNTVYLQMNSLKPEDTAVYYCNRVTAYYPTKFDYWGQGTQVTVSS	high polyreactivity
QVQLVESGGGLVQAGGSLRLSCAASGSIFRRYAMGWYRQAPGKERELVAAIDSSGGTSYADSVKGRFTISRDNAKNTVYLQMNILKPEDTAVYYCATSFSWKGRKYGYWGQGTQVTVSS	high polyreactivity
QVQLVESGGGLVQAGGSLRLSCAASGSIFRSYAMGWYRHAPGKERELVASISRRGGSTYYADSVKGRFTSSRDNSKNTVYLHMNSRKPEDTAVYYCAAVRYNSRVSTTTSEMYYWGQGTQVTVSS	low polyreactivity
QVQLVESGGGLVQAGGSLRLSCAASGSIFRSYAMGWYRQAPGKERELVAAISRRGSSTYYADSVKGRFTISRDNAKNTVYLQMNSLKPEDTAVYYCAADRVVPRGRYGGDYWGQGTQVTVSS	high polyreactivity
QVQLVESGGGLVQAGGSLRLSCAASGSIFRSYAMGWYRQAPGKERELVAAITNGGSTYYADSVKGRFTISRDNAKNTVYLQINSLKPEDTAVYYCAAARYTYWFYLVKKTGYYWGQGTQVTVSS	high polyreactivity
QVQLVESGGGLVQAGGSLRLSCAASGSIFRSYAMGWYRQAPGKERELVAGISYSGGSTYYADSVKGRFTISRDKAKNTVYLQMNSLKPEDTAVYYCNVDGGTYFFFVGAWGEYDYWGQGTQVTVSS	low polyreactivity
QVQLVESGGGLVQAGGSLRLSCAASGSIFRSYGMGWYRQAPGKDRELVPSISRRGGSTYYADSVKGRFTISRDNAKNTVYLQTNSLKPEDTAVYYCAAVRYNSRVSTTPSEMYYWGQGTQVTVSS	low polyreactivity
QVQLVESGGGLVQAGGSLRLSCAASGSIFRTNAIGWYRQAPGRERELVAAITGSGGSTYYADSVKGRFTISRDNAKNTVYLQMNSLKPEDTAVYYCAVVGYHRDFDYWGQGTQVTVSS	low polyreactivity
QVQLVESGGGLVQAGGSLRLSCAASGSIFRTNAMGWYRQAPGKERELVAAISSGDRTYYADSVKGRFTISRDNAKNTVYLQMNSLKPEDTAVYYCAARGYSATVYAGTYDYWGQGTQVTVSS	low polyreactivity
QVQLVESGGGLVQAGGSLRLSCAASGSIFRTNAMGWYRQAPGKERELVAAITGRGGSTYYADSVKGRFTISRNNAKNTVYLQMNSLKPEDTAVYYCAADTWYGYRYKYDYWGQGTQVTVSS	high polyreactivity
QVQLVESGGGLVQAGGSLRLSCAASGSIFRTYAMGWYRQAPGKERELVAAIRRSGGRTYYADSVKGRFTISRDNAKNTVYLQMNSLKPEDTAVYYCNKRVSKQSKYDYWGQGTQVTVSS	high polyreactivity
QVQLVESGGGLVQAGGSLRLSCAASGSIFRTYTMGWYRQAPGKEREFVAAISRSGGSTYYADSVKGRFTISRDNAKNTVYLQMNSLKPEDTAVYYCNARWGLGSYGYWGQGTQVTVSS	high polyreactivity
QVQLVESGGGLVQAGGSLRLSCAASGSIFRVNDMGWYRQAPGKERELVAAISSNGDDTFYADSVKGRFTISRDNAKNTVYLQMNSLKPEDTAVYYCNAESPTYPDYYFKYTHYDYWGQGTQVTVSS	low polyreactivity
QVQLVESGGGLVQAGGSLRLSCAASGSIFRVNDMGWYRQAPGKERELVAAISSNGDDTFYADSVKGRFTISRDNSKNTVYLQMNSLKPEDTAVYYCNAESPTYPDYFFKYTHYDYWGQGTQVTVSS	low polyreactivity
